Measured values from paper PMC3005887 (Research letters in biochemistry, 2009).

T1: 6Hishub/6HisLCb (clathrin hub with bound clathrin light chain b) (bovine, UniProt P49951 1074-1675; P04975 1-228)
T1 sequence (looked up) 1: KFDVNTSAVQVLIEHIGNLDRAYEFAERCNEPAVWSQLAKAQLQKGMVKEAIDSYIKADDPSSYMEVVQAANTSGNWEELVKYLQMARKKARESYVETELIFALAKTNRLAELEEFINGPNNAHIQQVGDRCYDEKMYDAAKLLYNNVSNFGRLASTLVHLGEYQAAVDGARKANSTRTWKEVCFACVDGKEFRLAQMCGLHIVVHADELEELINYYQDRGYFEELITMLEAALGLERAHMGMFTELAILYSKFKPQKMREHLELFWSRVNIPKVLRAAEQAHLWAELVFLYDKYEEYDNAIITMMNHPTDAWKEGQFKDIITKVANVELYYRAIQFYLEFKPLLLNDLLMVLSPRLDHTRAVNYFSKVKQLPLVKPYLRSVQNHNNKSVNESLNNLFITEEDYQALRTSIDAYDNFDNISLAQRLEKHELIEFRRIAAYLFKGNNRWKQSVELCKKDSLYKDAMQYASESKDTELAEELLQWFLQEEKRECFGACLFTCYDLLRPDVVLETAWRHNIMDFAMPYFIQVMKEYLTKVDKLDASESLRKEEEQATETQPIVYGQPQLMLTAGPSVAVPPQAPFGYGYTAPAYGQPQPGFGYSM
T1 sequence (looked up) 2: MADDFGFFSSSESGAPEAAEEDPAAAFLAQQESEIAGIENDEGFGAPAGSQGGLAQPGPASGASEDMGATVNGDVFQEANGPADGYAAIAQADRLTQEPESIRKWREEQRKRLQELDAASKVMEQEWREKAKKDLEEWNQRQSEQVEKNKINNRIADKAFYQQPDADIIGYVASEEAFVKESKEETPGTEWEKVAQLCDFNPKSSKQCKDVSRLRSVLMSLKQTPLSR

T2: 6Hishub alone (clathrin hub, bovine clathrin heavy chain aa1074-1675, no bound LCb) (bovine, UniProt P49951 1074-1675)
T2 sequence (looked up): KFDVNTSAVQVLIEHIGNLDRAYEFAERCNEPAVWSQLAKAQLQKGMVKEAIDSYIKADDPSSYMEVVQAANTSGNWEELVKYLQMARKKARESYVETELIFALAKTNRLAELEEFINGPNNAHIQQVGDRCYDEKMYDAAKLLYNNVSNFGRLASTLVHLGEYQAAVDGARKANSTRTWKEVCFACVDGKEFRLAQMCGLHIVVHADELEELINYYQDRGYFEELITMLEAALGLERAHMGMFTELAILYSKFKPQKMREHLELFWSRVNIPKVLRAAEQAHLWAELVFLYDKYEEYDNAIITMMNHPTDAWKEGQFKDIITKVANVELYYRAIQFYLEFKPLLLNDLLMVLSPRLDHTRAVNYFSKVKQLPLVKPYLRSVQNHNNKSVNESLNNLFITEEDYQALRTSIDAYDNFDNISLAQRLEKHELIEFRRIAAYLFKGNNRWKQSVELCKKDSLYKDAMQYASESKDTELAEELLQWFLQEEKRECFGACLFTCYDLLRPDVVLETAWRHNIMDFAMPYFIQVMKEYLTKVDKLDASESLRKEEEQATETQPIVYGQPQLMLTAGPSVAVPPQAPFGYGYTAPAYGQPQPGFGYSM


Legend:
[1] = target: T1, 6Hishub/6HisLCb (clathrin hub with …); test: pull-down; GST or GST-HIP1h on glutathione Sepharose 4B beads; 6HisLCb and hub premixed 3:1 at 4 C for at least 30 min; 0.4 nmol hub alone or 1.9 nmol hub/6HisLCb complex; binding buffer 50 mM Tris, 200 mM KCl, 1 mM EDTA, 1% Triton X-100, 50 mM imidazole, 0.5 mg/ml ovalbumin, pH 8.0; 4 C, 1 hour; Western blot (anti-His, CON.1, anti-GST); settings: both partners purified
[2] = target: T2, 6Hishub alone (clathrin hub, bovine …); test: as above; settings: both partners purified

Row | binding result [1] | binding result [2] | Binder
1 | binds |  | GST-HIP1h (Huntingtin-interacting protein 1, aa370-644), wild type (domain or fragment, human, UniProt O00291-1 370-644, looked up) KDEKDHLIERLYREISGLKAQLENMKTESQRVVLQLKGHVSELEADLAEQQHLRQQAADDCEFLRAELDELRRQREDTEKAQRSLSEIERKAQANEQRYSKLKEKYSELVQNHADLLRKNAEVTKQVSMARQAQVDLEREKKELEDSLERISDQGQRKTQEQLEVLESLKQELATSQRELQVLQGSLETSAQSEANWAAEFAELEKERDSLVSGAAHREEELSALRKELQDTQLKLASTEESMCQLAKDQRKMLLVGSRKAAEQVIQDALNQLEE
2 | binds |  | GST-HIP1h (aa370-644) R500E (domain or fragment, human, UniProt O00291-1 370-644, looked up) KDEKDHLIERLYREISGLKAQLENMKTESQRVVLQLKGHVSELEADLAEQQHLRQQAADDCEFLRAELDELRRQREDTEKAQRSLSEIERKAQANEQRYSKLKEKYSELVQNHADLLRKNAEVTKQVSMAEQAQVDLEREKKELEDSLERISDQGQRKTQEQLEVLESLKQELATSQRELQVLQGSLETSAQSEANWAAEFAELEKERDSLVSGAAHREEELSALRKELQDTQLKLASTEESMCQLAKDQRKMLLVGSRKAAEQVIQDALNQLEE
3 | binds |  | GST-HIP1h (aa370-644) K511E (domain or fragment, human, UniProt O00291-1 370-644, looked up) KDEKDHLIERLYREISGLKAQLENMKTESQRVVLQLKGHVSELEADLAEQQHLRQQAADDCEFLRAELDELRRQREDTEKAQRSLSEIERKAQANEQRYSKLKEKYSELVQNHADLLRKNAEVTKQVSMARQAQVDLEREKEELEDSLERISDQGQRKTQEQLEVLESLKQELATSQRELQVLQGSLETSAQSEANWAAEFAELEKERDSLVSGAAHREEELSALRKELQDTQLKLASTEESMCQLAKDQRKMLLVGSRKAAEQVIQDALNQLEE
4 | binds |  | GST-HIP1h (aa370-644) R508E (domain or fragment, human, UniProt O00291-1 370-644, looked up) KDEKDHLIERLYREISGLKAQLENMKTESQRVVLQLKGHVSELEADLAEQQHLRQQAADDCEFLRAELDELRRQREDTEKAQRSLSEIERKAQANEQRYSKLKEKYSELVQNHADLLRKNAEVTKQVSMARQAQVDLEEEKKELEDSLERISDQGQRKTQEQLEVLESLKQELATSQRELQVLQGSLETSAQSEANWAAEFAELEKERDSLVSGAAHREEELSALRKELQDTQLKLASTEESMCQLAKDQRKMLLVGSRKAAEQVIQDALNQLEE
5 |  | binds | 6HisLCb (N-terminally histidine-tagged bovine clathrin light chain b with the neuronal insert) (natural protein, UniProt P04975 1-228, looked up) MADDFGFFSSSESGAPEAAEEDPAAAFLAQQESEIAGIENDEGFGAPAGSQGGLAQPGPASGASEDMGATVNGDVFQEANGPADGYAAIAQADRLTQEPESIRKWREEQRKRLQELDAASKVMEQEWREKAKKDLEEWNQRQSEQVEKNKINNRIADKAFYQQPDADIIGYVASEEAFVKESKEETPGTEWEKVAQLCDFNPKSSKQCKDVSRLRSVLMSLKQTPLSR
